Assay results as given in the supplement of paper PMC10724198.
± gives the standard deviation of the averaged measurements.

How the values were obtained:
Saccharomyces cerevisiae [1] = experiment: protein stability index of tFT-peptide fusion (C-terminal peptide) (PSI (0-1 scale)); higher = more stable (slower turnover); settings: genetic background: wild type; temperature: 30 C
Saccharomyces cerevisiae [2] = experiment: as above
Procedure: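 MPS profiling in S. cerevisiae of the tFT-X12 degron library: putative degron peptides plus stable controls, 12 aa, fused to the C-terminus of a sfGFP-mCherry timer. Cells are FACS-sorted into 8 mCherry/sfGFP bins and deep-sequenced. PSI runs from 0 (unstable) to 1 (stable). Backgrounds are wild type, das1Δ and doa10Δ at 30 °C, and wild type, das1Δ, cdc34-1 and cdc53-1 at 37 °C; 2-3 technical replicates each.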

[3] = genetic background: cdc34-1, temperature: 37 C
[4] = genetic background: cdc53-1, temperature: 37 C
[5] = genetic background: das1 deletion, temperature: 30 C
[6] = genetic background: das1 deletion, temperature: 37 C
[7] = genetic background: doa10 deletion, temperature: 30 C
[8] = genetic background: wild type, temperature: 30 C
[9] = genetic background: wild type, temperature: 37 C
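Also: PSI is a weighted mean of sequencing reads over stability bins, variants kept only with over 10 reads, mCherry proximal and sfGFP distal, peptide attached via GGGS linker.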

LFHVWSLRFFWL
protein stability index (Saccharomyces cerevisiae [1]): 0.391 ± 0.023 | protein stability index (Saccharomyces cerevisiae [2]; [3]): 0.576 ± 0.039 | protein stability index (Saccharomyces cerevisiae [2]; [4]): 0.669 ± 0.017 | protein stability index (Saccharomyces cerevisiae [2]; [5]): 0.557 ± 0.018 | protein stability index (Saccharomyces cerevisiae [2]; [6]): 0.6837 ± 0.0039 | protein stability index (Saccharomyces cerevisiae [2]; [7]): 0.2583 ± 0.00064 | protein stability index (Saccharomyces cerevisiae [2]; [8]): 0.282 ± 0.027 | protein stability index (Saccharomyces cerevisiae [2]; [9]): 0.434 ± 0.015

LFRFVFLLFGFW
protein stability index (Saccharomyces cerevisiae [1]): 0.446 ± 0.049 | protein stability index (Saccharomyces cerevisiae [2]; [3]): 0.452 ± 0.019 | protein stability index (Saccharomyces cerevisiae [2]; [4]): 0.428 ± 0.025 | protein stability index (Saccharomyces cerevisiae [2]; [5]): 0.435 ± 0.015 | protein stability index (Saccharomyces cerevisiae [2]; [6]): 0.566 ± 0.032 | protein stability index (Saccharomyces cerevisiae [2]; [7]): 0.4885 ± 0.0013 | protein stability index (Saccharomyces cerevisiae [2]; [8]): 0.423 ± 0.034 | protein stability index (Saccharomyces cerevisiae [2]; [9]): 0.526 ± 0.026

CRLLYYIPCGLF
protein stability index (Saccharomyces cerevisiae [1]): 0.49841 ± 0.00044 | protein stability index (Saccharomyces cerevisiae [2]; [3]): 0.656 ± 0.02 | protein stability index (Saccharomyces cerevisiae [2]; [4]): 0.703 ± 0.026 | protein stability index (Saccharomyces cerevisiae [2]; [5]): 0.534 ± 0.029 | protein stability index (Saccharomyces cerevisiae [2]; [6]): 0.701 ± 0.035 | protein stability index (Saccharomyces cerevisiae [2]; [7]): 0.359 ± 0.022 | protein stability index (Saccharomyces cerevisiae [2]; [8]): 0.403 ± 0.014 | protein stability index (Saccharomyces cerevisiae [2]; [9]): 0.5973 ± 0.00064

SCCGCGFGLLFC
protein stability index (Saccharomyces cerevisiae [1]): 0.73 ± 0.018 | protein stability index (Saccharomyces cerevisiae [2]; [3]): 0.731 ± 0.011 | protein stability index (Saccharomyces cerevisiae [2]; [4]): 0.807 ± 0.0017 | protein stability index (Saccharomyces cerevisiae [2]; [5]): 0.631 ± 0.023 | protein stability index (Saccharomyces cerevisiae [2]; [6]): 0.7812 ± 0.0002 | protein stability index (Saccharomyces cerevisiae [2]; [7]): 0.643 ± 0.032 | protein stability index (Saccharomyces cerevisiae [2]; [8]): 0.632 ± 0.016 | protein stability index (Saccharomyces cerevisiae [2]; [9]): 0.7399 ± 0.0056

SRPGRWRLYYVS
protein stability index (Saccharomyces cerevisiae [1]): 0.401 ± 0.098 | protein stability index (Saccharomyces cerevisiae [2]; [3]): 0.6867 ± 0.0067 | protein stability index (Saccharomyces cerevisiae [2]; [4]): 0.802 ± 0.016 | protein stability index (Saccharomyces cerevisiae [2]; [5]): 0.679 ± 0.0079 | protein stability index (Saccharomyces cerevisiae [2]; [6]): 0.758 ± 0.011 | protein stability index (Saccharomyces cerevisiae [2]; [7]): 0.38 ± 0.023 | protein stability index (Saccharomyces cerevisiae [2]; [8]): 0.383 ± 0.022 | protein stability index (Saccharomyces cerevisiae [2]; [9]): 0.54 ± 0.0037

EWVGIFRGVSVF
protein stability index (Saccharomyces cerevisiae [1]): 0.371 ± 0.0074 | protein stability index (Saccharomyces cerevisiae [2]; [3]): 0.2846 ± 0.0011 | protein stability index (Saccharomyces cerevisiae [2]; [4]): 0.293 ± 0.0067 | protein stability index (Saccharomyces cerevisiae [2]; [5]): 0.256 ± 0.032 | protein stability index (Saccharomyces cerevisiae [2]; [6]): 0.4158 ± 0.003 | protein stability index (Saccharomyces cerevisiae [2]; [7]): 0.224 ± 0.02 | protein stability index (Saccharomyces cerevisiae [2]; [8]): 0.267 ± 0.022 | protein stability index (Saccharomyces cerevisiae [2]; [9]): 0.374 ± 0.0073

FVSAFVCLLCLV
protein stability index (Saccharomyces cerevisiae [1]): 0.4919 ± 0.004 | protein stability index (Saccharomyces cerevisiae [2]; [3]): 0.58 ± 0.041 | protein stability index (Saccharomyces cerevisiae [2]; [4]): 0.6283 ± 0.006 | protein stability index (Saccharomyces cerevisiae [2]; [5]): 0.509 ± 0.0073 | protein stability index (Saccharomyces cerevisiae [2]; [6]): 0.615 ± 0.0078 | protein stability index (Saccharomyces cerevisiae [2]; [7]): 0.357 ± 0.013 | protein stability index (Saccharomyces cerevisiae [2]; [8]): 0.377 ± 0.016 | protein stability index (Saccharomyces cerevisiae [2]; [9]): 0.4877 ± 0.00084

GWFCLFFVVSTG
protein stability index (Saccharomyces cerevisiae [1]): 0.342 ± 0.026 | protein stability index (Saccharomyces cerevisiae [2]; [3]): 0.213 ± 0.034 | protein stability index (Saccharomyces cerevisiae [2]; [4]): 0.3162 ± 0.0016 | protein stability index (Saccharomyces cerevisiae [2]; [5]): 0.225 ± 0.024 | protein stability index (Saccharomyces cerevisiae [2]; [6]): 0.4003 ± 0.0021 | protein stability index (Saccharomyces cerevisiae [2]; [7]): 0.203 ± 0.0087 | protein stability index (Saccharomyces cerevisiae [2]; [8]): 0.225 ± 0.031 | protein stability index (Saccharomyces cerevisiae [2]; [9]): 0.371 ± 0.012

RSKKIFLTKKYS
protein stability index (Saccharomyces cerevisiae [1]): 0.281 ± 0.075 | protein stability index (Saccharomyces cerevisiae [2]; [3]): 0.608 ± 0.053 | protein stability index (Saccharomyces cerevisiae [2]; [4]): 0.734 ± 0.042 | protein stability index (Saccharomyces cerevisiae [2]; [5]): 0.64 ± 0.035 | protein stability index (Saccharomyces cerevisiae [2]; [6]): 0.701 ± 0.018 | protein stability index (Saccharomyces cerevisiae [2]; [7]): 0.162 ± 0.0021 | protein stability index (Saccharomyces cerevisiae [2]; [8]): 0.202 ± 0.025 | protein stability index (Saccharomyces cerevisiae [2]; [9]): 0.395 ± 0.044

LIRVLRVLRHSS
protein stability index (Saccharomyces cerevisiae [1]): 0.375 ± 0.056 | protein stability index (Saccharomyces cerevisiae [2]; [3]): 0.607 ± 0.015 | protein stability index (Saccharomyces cerevisiae [2]; [4]): 0.6917 ± 0.0043 | protein stability index (Saccharomyces cerevisiae [2]; [5]): 0.638 ± 0.018 | protein stability index (Saccharomyces cerevisiae [2]; [6]): 0.7225 ± 0.0011 | protein stability index (Saccharomyces cerevisiae [2]; [7]): 0.167 ± 0.0097 | protein stability index (Saccharomyces cerevisiae [2]; [8]): 0.194 ± 0.021 | protein stability index (Saccharomyces cerevisiae [2]; [9]): 0.382 ± 0.045

FFFFFIHFLCYF
protein stability index (Saccharomyces cerevisiae [1]): 0.31 ± 0.035 | protein stability index (Saccharomyces cerevisiae [2]; [3]): 0.239 ± 0.019 | protein stability index (Saccharomyces cerevisiae [2]; [4]): 0.208 ± 0.0039 | protein stability index (Saccharomyces cerevisiae [2]; [5]): 0.249 ± 0.034 | protein stability index (Saccharomyces cerevisiae [2]; [6]): 0.383 ± 0.021 | protein stability index (Saccharomyces cerevisiae [2]; [7]): 0.288 ± 0.0065 | protein stability index (Saccharomyces cerevisiae [2]; [8]): 0.239 ± 0.047 | protein stability index (Saccharomyces cerevisiae [2]; [9]): 0.357 ± 0.0053

VCLLFRFCCWFW
protein stability index (Saccharomyces cerevisiae [1]): 0.371 ± 0.017 | protein stability index (Saccharomyces cerevisiae [2]; [3]): 0.351 ± 0.024 | protein stability index (Saccharomyces cerevisiae [2]; [4]): 0.357 ± 0.0081 | protein stability index (Saccharomyces cerevisiae [2]; [5]): 0.305 ± 0.013 | protein stability index (Saccharomyces cerevisiae [2]; [6]): 0.461 ± 0.02 | protein stability index (Saccharomyces cerevisiae [2]; [7]): 0.331 ± 0.025 | protein stability index (Saccharomyces cerevisiae [2]; [8]): 0.304 ± 0.01 | protein stability index (Saccharomyces cerevisiae [2]; [9]): 0.414 ± 0.03

KAIILGNIKINF
protein stability index (Saccharomyces cerevisiae [1]): 0.539 ± 0.16 | protein stability index (Saccharomyces cerevisiae [2]; [3]): 0.729 ± 0.018 | protein stability index (Saccharomyces cerevisiae [2]; [4]): 0.744 ± 0.016 | protein stability index (Saccharomyces cerevisiae [2]; [5]): 0.6368 ± 0.0023 | protein stability index (Saccharomyces cerevisiae [2]; [6]): 0.714 ± 0.011 | protein stability index (Saccharomyces cerevisiae [2]; [7]): 0.638 ± 0.026 | protein stability index (Saccharomyces cerevisiae [2]; [8]): 0.624 ± 0.018 | protein stability index (Saccharomyces cerevisiae [2]; [9]): 0.741 ± 0.045

LFWTWVLVGVSV
protein stability index (Saccharomyces cerevisiae [1]): 0.256 ± 0.028 | protein stability index (Saccharomyces cerevisiae [2]; [3]): 0.1462 ± 0.0014 | protein stability index (Saccharomyces cerevisiae [2]; [4]): 0.176 ± 0.029 | protein stability index (Saccharomyces cerevisiae [2]; [5]): 0.192 ± 0.022 | protein stability index (Saccharomyces cerevisiae [2]; [6]): 0.283 ± 0.013 | protein stability index (Saccharomyces cerevisiae [2]; [7]): 0.127 ± 0.0013 | protein stability index (Saccharomyces cerevisiae [2]; [8]): 0.164 ± 0.015 | protein stability index (Saccharomyces cerevisiae [2]; [9]): 0.263 ± 0.033

FICYDRILTVYY
protein stability index (Saccharomyces cerevisiae [1]): 0.454 ± 0.034 | protein stability index (Saccharomyces cerevisiae [2]; [3]): 0.479 ± 0.0097 | protein stability index (Saccharomyces cerevisiae [2]; [4]): 0.564 ± 0.045 | protein stability index (Saccharomyces cerevisiae [2]; [5]): 0.394 ± 0.029 | protein stability index (Saccharomyces cerevisiae [2]; [6]): 0.524 ± 0.026 | protein stability index (Saccharomyces cerevisiae [2]; [7]): 0.369 ± 0.043 | protein stability index (Saccharomyces cerevisiae [2]; [8]): 0.368 ± 0.024 | protein stability index (Saccharomyces cerevisiae [2]; [9]): 0.489 ± 0.031

AWLWCVCWSIMR
protein stability index (Saccharomyces cerevisiae [1]): 0.395 ± 0.025 | protein stability index (Saccharomyces cerevisiae [2]; [3]): 0.389 ± 0.017 | protein stability index (Saccharomyces cerevisiae [2]; [4]): 0.414 ± 0.013 | protein stability index (Saccharomyces cerevisiae [2]; [5]): 0.317 ± 0.034 | protein stability index (Saccharomyces cerevisiae [2]; [6]): 0.502 ± 0.024 | protein stability index (Saccharomyces cerevisiae [2]; [7]): 0.373 ± 0.028 | protein stability index (Saccharomyces cerevisiae [2]; [8]): 0.323 ± 0.021 | protein stability index (Saccharomyces cerevisiae [2]; [9]): 0.453 ± 0.0073

SLIFRVGKFKSL
protein stability index (Saccharomyces cerevisiae [1]): 0.137 ± 0.021 | protein stability index (Saccharomyces cerevisiae [2]; [3]): 0.5892 ± 0.0014 | protein stability index (Saccharomyces cerevisiae [2]; [4]): 0.6968 ± 0.0048 | protein stability index (Saccharomyces cerevisiae [2]; [5]): 0.654 ± 0.019 | protein stability index (Saccharomyces cerevisiae [2]; [6]): 0.738 ± 0.012 | protein stability index (Saccharomyces cerevisiae [2]; [7]): 0.0628 ± 0.011 | protein stability index (Saccharomyces cerevisiae [2]; [8]): 0.0746 ± 0.017 | protein stability index (Saccharomyces cerevisiae [2]; [9]): 0.101 ± 0.0098

PLFLRPLSVPVL
protein stability index (Saccharomyces cerevisiae [1]): 0.425 ± 0.0092 | protein stability index (Saccharomyces cerevisiae [2]; [3]): 0.421 ± 0.0067 | protein stability index (Saccharomyces cerevisiae [2]; [4]): 0.441 ± 0.01 | protein stability index (Saccharomyces cerevisiae [2]; [5]): 0.333 ± 0.03 | protein stability index (Saccharomyces cerevisiae [2]; [6]): 0.457 ± 0.0058 | protein stability index (Saccharomyces cerevisiae [2]; [7]): 0.305 ± 0.0096 | protein stability index (Saccharomyces cerevisiae [2]; [8]): 0.328 ± 0.024 | protein stability index (Saccharomyces cerevisiae [2]; [9]): 0.4324 ± 0.0022

VFIPFGFCLCFV
protein stability index (Saccharomyces cerevisiae [1]): 0.373 ± 0.0028 | protein stability index (Saccharomyces cerevisiae [2]; [3]): 0.408 ± 0.012 | protein stability index (Saccharomyces cerevisiae [2]; [4]): 0.4114 ± 0.0039 | protein stability index (Saccharomyces cerevisiae [2]; [5]): 0.317 ± 0.019 | protein stability index (Saccharomyces cerevisiae [2]; [6]): 0.466 ± 0.0087 | protein stability index (Saccharomyces cerevisiae [2]; [7]): 0.318 ± 0.015 | protein stability index (Saccharomyces cerevisiae [2]; [8]): 0.295 ± 0.017 | protein stability index (Saccharomyces cerevisiae [2]; [9]): 0.4401 ± 0.0027

LFLLYVLVSLFV
protein stability index (Saccharomyces cerevisiae [1]): 0.281 ± 0.045 | protein stability index (Saccharomyces cerevisiae [2]; [3]): 0.288 ± 0.019 | protein stability index (Saccharomyces cerevisiae [2]; [4]): 0.347 ± 0.064 | protein stability index (Saccharomyces cerevisiae [2]; [5]): 0.267 ± 0.048 | protein stability index (Saccharomyces cerevisiae [2]; [6]): 0.369 ± 0.019 | protein stability index (Saccharomyces cerevisiae [2]; [7]): 0.222 ± 0.0045 | protein stability index (Saccharomyces cerevisiae [2]; [8]): 0.251 ± 0.025 | protein stability index (Saccharomyces cerevisiae [2]; [9]): 0.39 ± 0.052
